We go through three molecules from paper PMC2782133, “Interaction of HP1 and Brg1/Brm with the Globular Domain of Histone H3 Is Required for HP1-Mediated Repression” (PLoS Genetics, 2009).

Experiment [1] addresses T1, GST-HP1γ (human, UniProt Q13185 1-183).
T1 construct: HP1γ
The experiment in a line: pull-down; GST fusion proteins bound to agarose beads incubated with purified histones, recombinant B10-tagged H3 constructs or purified Brg1-flag; ELB buffer (50mM HEPES pH 7, 250mM NaCl, 1mM EDTA, 0.1% NP40); elution with 20mM glutathione; western blot (anti-H3, anti-B10 or anti-Brg1). Conditions: both partners purified.

For experiment [2], the target named is T2, GST-HP1α (human, UniProt P45973 1-191).
T2 construct: HP1α, human; also called HP1α-derived GST-fusion protein
Described as above. Conditions: both partners purified.

T1 sequence (Q13185 whole entry): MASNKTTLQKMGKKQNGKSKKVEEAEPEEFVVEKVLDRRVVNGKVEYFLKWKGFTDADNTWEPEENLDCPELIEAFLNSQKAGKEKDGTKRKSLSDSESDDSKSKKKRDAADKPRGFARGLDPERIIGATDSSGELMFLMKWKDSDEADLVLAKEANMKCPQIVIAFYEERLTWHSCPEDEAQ
T2 sequence (P45973 whole entry, the tested form may be a part): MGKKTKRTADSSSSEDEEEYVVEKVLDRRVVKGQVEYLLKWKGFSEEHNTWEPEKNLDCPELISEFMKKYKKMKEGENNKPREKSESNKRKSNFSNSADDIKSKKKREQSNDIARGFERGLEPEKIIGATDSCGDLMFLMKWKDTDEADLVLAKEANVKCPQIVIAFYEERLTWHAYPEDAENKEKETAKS

B1: rH3(44–66), B10/6xHIS-tagged (domain or fragment, UniProt P68431 45-67, looked up)
chain: GTVALREIRRYQKSTELLIRKLP
notes: histone H3 aa 44-66, recombinant; also called histone H3 aa 44 to 66
As to B1, in experiment [1], the binding result was “binds”.

B2: rH3(35–66), B10/6xHIS-tagged (domain or fragment)
chain: not shown
notes: histone H3 aa 35-66 (V35 to P66), recombinant; also called Shadock; histone H3 aa 35 to 66
With B2, the “fold excess of HP1α over Brg1 needed for similar binding” value in experiment [2] is approximately 50 fold. In addition, in experiment [1], the binding result is recorded as “binds”.

B3: rH3(35–66)V46A, B10/6xHIS-tagged (domain or fragment)
chain: not shown
notes: histone H3 aa 35-66 with the valine of the PXXVXL motif mutated; also called mutant B10-tagged fragment of histone H3 (aa 35 to 66)
In the case of B3, the binding result in experiment [1] is “binds”.
